Measurements published in the supplement of paper PMC9112550, “Optimization of the antimicrobial peptide Bac7 by deep mutational scanning” (BMC Biology, 2022).

test system: Escherichia coli TOP10; assay: shrunken log2 fold change of peptide-encoding DNA abundance (4.5 h post-induction vs induction); higher = less antimicrobial activity (less host growth inhibition); conditions: time post-induction: 4.5 h; library: site-saturation at positions 5, 18, 19, 20
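Further: peptides expressed intracellularly from a pBAD plasmid library in pooled LB shake-flask culture, induced with 0.3% L-arabinose, DNA abundance read by NGS, three biological replicates, DESeq2 with apeglm shrinkage.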

Sequence | shrunken log2 fold change
RRIRSRPPRLPRPRPRPRRPPRP | 0.364
RRIRSRPPRLPRPRPRPRSLPRP | -0.0256
RRIRSRPPRLPRPRPRPRSWPRP | 0.0511
RRIRSRPPRLPRPRPRPRTCPRP | 0.0915
RRIRSRPPRLPRPRPRPRVWPRP | 0.536
RRIRSRPPRLPRPRPRPRYRPRP | -0.276
RRIRSRPPRLPRPRPRPSAIPRP | 0.0168
RRIRSRPPRLPRPRPRPSAYPRP | -0.0159
RRIRSRPPRLPRPRPRPSCNPRP | -0.377
RRIRSRPPRLPRPRPRPSEMPRP | -0.114
RRIRSRPPRLPRPRPRPSFQPRP | -0.282
RRIRSRPPRLPRPRPRPSFSPRP | -0.351
RRIRSRPPRLPRPRPRPSGIPRP | -0.169
RRIRSRPPRLPRPRPRPSIAPRP | -0.167
RRIRSRPPRLPRPRPRPSIPPRP | -0.458
RRIRSRPPRLPRPRPRPSIRPRP | -0.41
RRIRSRPPRLPRPRPRPSKWPRP | -0.285
RRIRSRPPRLPRPRPRPSLAPRP | 0.164
RRIRSRPPRLPRPRPRPSLHPRP | -0.385
RRIRSRPPRLPRPRPRPSLPPRP | -0.352
RRIRSRPPRLPRPRPRPSMTPRP | -0.356
RRIRSRPPRLPRPRPRPSNHPRP | -0.503
RRIRSRPPRLPRPRPRPSQAPRP | -0.0295
RRIRSRPPRLPRPRPRPSQNPRP | -0.321
RRIRSRPPRLPRPRPRPSQPPRP | -0.14

Sequence | shrunken log2 fold change
RRIRSRPPRLPRPRPRPSQRPRP | -0.0585
RRIRSRPPRLPRPRPRPSRFPRP | -0.0392
RRIRSRPPRLPRPRPRPSSHPRP | -0.0982
RRIRSRPPRLPRPRPRPSVEPRP | -0.0505
RRIRSRPPRLPRPRPRPSWEPRP | 0.0729
RRIRSRPPRLPRPRPRPSWMPRP | -0.0505
RRIRSRPPRLPRPRPRPSYKPRP | -0.659
RRIRSRPPRLPRPRPRPSYNPRP | -0.759
RRIRSRPPRLPRPRPRPTAEPRP | 0.825
RRIRSRPPRLPRPRPRPTANPRP | 0.293
RRIRSRPPRLPRPRPRPTCGPRP | 0.468
RRIRSRPPRLPRPRPRPTDPPRP | -0.000503
RRIRSRPPRLPRPRPRPTECPRP | -0.00271
RRIRSRPPRLPRPRPRPTEGPRP | 0.139
RRIRSRPPRLPRPRPRPTHNPRP | -0.133
RRIRSRPPRLPRPRPRPTHVPRP | -0.117
RRIRSRPPRLPRPRPRPTISPRP | -0.655
RRIRSRPPRLPRPRPRPTIWPRP | 0.393
RRIRSRPPRLPRPRPRPTKMPRP | 0.00603
RRIRSRPPRLPRPRPRPTKYPRP | -0.52
RRIRSRPPRLPRPRPRPTLVPRP | 0.366
RRIRSRPPRLPRPRPRPTNQPRP | -0.311
RRIRSRPPRLPRPRPRPTRPPRP | 0.645
RRIRSRPPRLPRPRPRPTSIPRP | -0.102
RRIRSRPPRLPRPRPRPTTDPRP | 0.0457

Sequence | shrunken log2 fold change
RRIRSRPPRLPRPRPRPTTIPRP | 0.127
RRIRSRPPRLPRPRPRPTTLPRP | -0.0324
RRIRSRPPRLPRPRPRPTWTPRP | 0.764
RRIRSRPPRLPRPRPRPTYCPRP | -0.112
RRIRSRPPRLPRPRPRPTYTPRP | -0.24
RRIRSRPPRLPRPRPRPVAEPRP | 1.28
RRIRSRPPRLPRPRPRPVCWPRP | 0.714
RRIRSRPPRLPRPRPRPVGNPRP | -0.0399
RRIRSRPPRLPRPRPRPVKKPRP | 0.0525
RRIRSRPPRLPRPRPRPVLMPRP | -0.0465
RRIRSRPPRLPRPRPRPVNAPRP | 0.319
RRIRSRPPRLPRPRPRPVNPPRP | -0.118
RRIRSRPPRLPRPRPRPVPFPRP | -0.237
RRIRSRPPRLPRPRPRPVQHPRP | -0.0389
RRIRSRPPRLPRPRPRPVQPPRP | 0.107
RRIRSRPPRLPRPRPRPVSFPRP | 0.118
RRIRSRPPRLPRPRPRPVSGPRP | 0.00238
RRIRSRPPRLPRPRPRPVSHPRP | -0.188
RRIRSRPPRLPRPRPRPVSKPRP | 0.236
RRIRSRPPRLPRPRPRPVSSPRP | 0.0316
RRIRSRPPRLPRPRPRPVSTPRP | -0.187
RRIRSRPPRLPRPRPRPVVCPRP | -0.0186
RRIRSRPPRLPRPRPRPVWEPRP | 0.118
RRIRSRPPRLPRPRPRPVWLPRP | -0.388
RRIRSRPPRLPRPRPRPVYVPRP | -0.525

Sequence | shrunken log2 fold change
RRIRSRPPRLPRPRPRPWAAPRP | 0.327
RRIRSRPPRLPRPRPRPWADPRP | -0.307
RRIRSRPPRLPRPRPRPWDEPRP | -0.0358
RRIRSRPPRLPRPRPRPWDIPRP | -0.211
RRIRSRPPRLPRPRPRPWDSPRP | -0.729
RRIRSRPPRLPRPRPRPWDWPRP | 0.676
RRIRSRPPRLPRPRPRPWEEPRP | 0.0166
RRIRSRPPRLPRPRPRPWEFPRP | 0.236
RRIRSRPPRLPRPRPRPWFEPRP | -0.0139
RRIRSRPPRLPRPRPRPWGQPRP | 0.0926
RRIRSRPPRLPRPRPRPWGYPRP | -0.226
RRIRSRPPRLPRPRPRPWHLPRP | -0.273
RRIRSRPPRLPRPRPRPWIYPRP | -0.187
RRIRSRPPRLPRPRPRPWKTPRP | -0.0527
RRIRSRPPRLPRPRPRPWLCPRP | -0.0753
RRIRSRPPRLPRPRPRPWLGPRP | -0.092
RRIRSRPPRLPRPRPRPWPNPRP | -0.13
RRIRSRPPRLPRPRPRPWQAPRP | 0.214
RRIRSRPPRLPRPRPRPWQVPRP | 0.00514
RRIRSRPPRLPRPRPRPWRGPRP | 0.59
RRIRSRPPRLPRPRPRPWTQPRP | 0.149
RRIRSRPPRLPRPRPRPWVNPRP | -0.0336
RRIRSRPPRLPRPRPRPWWCPRP | 0.0769
RRIRSRPPRLPRPRPRPWWDPRP | -0.137
RRIRSRPPRLPRPRPRPWWVPRP | -0.2

Sequence | shrunken log2 fold change
RRIRSRPPRLPRPRPRPWYCPRP | 0.017
RRIRSRPPRLPRPRPRPWYTPRP | 0.0361
RRIRSRPPRLPRPRPRPYCHPRP | -0.532
RRIRSRPPRLPRPRPRPYEQPRP | -0.0601
RRIRSRPPRLPRPRPRPYEVPRP | 0.07
RRIRSRPPRLPRPRPRPYFAPRP | -0.645
RRIRSRPPRLPRPRPRPYFHPRP | -0.853
RRIRSRPPRLPRPRPRPYFIPRP | -1.06
RRIRSRPPRLPRPRPRPYGPPRP | -0.401
RRIRSRPPRLPRPRPRPYIAPRP | -0.917
RRIRSRPPRLPRPRPRPYIEPRP | -0.183
RRIRSRPPRLPRPRPRPYIRPRP | -0.0533
RRIRSRPPRLPRPRPRPYISPRP | -0.0172
RRIRSRPPRLPRPRPRPYKMPRP | -0.425
RRIRSRPPRLPRPRPRPYKSPRP | -0.694
RRIRSRPPRLPRPRPRPYLMPRP | -0.566
RRIRSRPPRLPRPRPRPYMEPRP | 2.73
RRIRSRPPRLPRPRPRPYNLPRP | -0.573
RRIRSRPPRLPRPRPRPYPIPRP | -0.356
RRIRSRPPRLPRPRPRPYQGPRP | -0.129
RRIRSRPPRLPRPRPRPYQNPRP | -0.511
RRIRSRPPRLPRPRPRPYQTPRP | -0.0406
RRIRSRPPRLPRPRPRPYREPRP | 0.0503
RRIRSRPPRLPRPRPRPYRTPRP | 0.00951
RRIRSRPPRLPRPRPRPYVSPRP | -0.136

Sequence | shrunken log2 fold change
RRIRSRPPRLPRPRPRPYWIPRP | -0.267
RRIRSRPPRLPRPRPRPYWNPRP | 0.503
RRIRSRPPRLPRPRPRPYYYPRP | -0.507
RRIRTRPPRLPRPRPRPAAQPRP | 0.312
RRIRTRPPRLPRPRPRPADQPRP | -0.0202
RRIRTRPPRLPRPRPRPADTPRP | -0.215
RRIRTRPPRLPRPRPRPAEEPRP | 0.0505
RRIRTRPPRLPRPRPRPAFCPRP | 0.113
RRIRTRPPRLPRPRPRPAFMPRP | -0.0227
RRIRTRPPRLPRPRPRPAFYPRP | 0.116
RRIRTRPPRLPRPRPRPAIDPRP | -0.206
RRIRTRPPRLPRPRPRPAIEPRP | 0.0358
RRIRTRPPRLPRPRPRPAINPRP | 0.0461
RRIRTRPPRLPRPRPRPALEPRP | 0.122
RRIRTRPPRLPRPRPRPALPPRP | 0.204
RRIRTRPPRLPRPRPRPALQPRP | 0.278
RRIRTRPPRLPRPRPRPALRPRP | 0.398
RRIRTRPPRLPRPRPRPANGPRP | -0.213
RRIRTRPPRLPRPRPRPANHPRP | -0.179
RRIRTRPPRLPRPRPRPAQFPRP | -0.0946
RRIRTRPPRLPRPRPRPAQRPRP | 0.356
RRIRTRPPRLPRPRPRPARFPRP | 0.128
RRIRTRPPRLPRPRPRPARPPRP | 0.883
RRIRTRPPRLPRPRPRPARTPRP | 0.381
RRIRTRPPRLPRPRPRPATLPRP | -0.197
